In PMC9483108:
Read-outs that look alike come from different tables or passages of the source.

T1: RPL (Col-0)-His (Arabidopsis thaliana (Col-0), UniProt Q9LZM8 1-575)
T1 sequence: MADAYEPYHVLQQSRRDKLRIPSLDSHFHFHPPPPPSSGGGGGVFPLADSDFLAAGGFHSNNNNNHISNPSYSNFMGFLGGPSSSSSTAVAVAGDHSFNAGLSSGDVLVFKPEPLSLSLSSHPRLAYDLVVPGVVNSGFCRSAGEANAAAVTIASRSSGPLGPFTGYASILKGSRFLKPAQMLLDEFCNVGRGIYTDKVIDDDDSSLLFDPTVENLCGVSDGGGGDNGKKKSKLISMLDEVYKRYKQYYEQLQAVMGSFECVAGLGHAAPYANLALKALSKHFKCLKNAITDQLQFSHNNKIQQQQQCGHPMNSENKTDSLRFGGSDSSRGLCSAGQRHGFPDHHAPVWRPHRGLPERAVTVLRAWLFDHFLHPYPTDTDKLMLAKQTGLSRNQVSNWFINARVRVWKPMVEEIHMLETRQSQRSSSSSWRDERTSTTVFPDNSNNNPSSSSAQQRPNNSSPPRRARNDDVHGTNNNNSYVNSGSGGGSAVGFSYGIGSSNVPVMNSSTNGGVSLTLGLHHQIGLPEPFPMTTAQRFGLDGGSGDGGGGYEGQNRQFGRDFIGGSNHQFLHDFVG

B1: GH3.3-m1-65bp (dsDNA)
DNA 1: CAAATTGAAAATGTCATTACCACTGATTAAAAAGGAATCAAAAGAAAAAAAGCTTTTAGTATTGA
DNA 2: TCAATACTAAAAGCTTTTTTTCTTTTGATTCCTTTTTAATCAGTGGTAATGACATTTTCAATTTG
B2: GH3.3-m2-65bp (dsDNA)
DNA 1: AATCAAAAGAAAAAAAGCTTTTAGTATTGAGTATTGACCGTCGCTATCGGTGACAGGCAGAGTCA
DNA 2: TGACTCTGCCTGTCACCGATAGCGACGGTCAATACTCAATACTAAAAGCTTTTTTTCTTTTGATT
B3: CHI-m1-65bp (dsDNA)
DNA 1: CCATTTTTGTTTTTTGTTTTTTCAGTGACAAACTCACATGGATTTCATTTCAGATTCAGTTAGAT
DNA 2: ATCTAACTGAATCTGAAATGAAATCCATGTGAGTTTGTCACTGAAAAAACAAAAAACAAAAATGG
B4: CHI-m2-65bp (dsDNA)
DNA 1: GCTATTTTTTTTTTTTTTAATTTTATTGATCAATCAACTGAATACTGAATACAAAAGAAAACCTG
DNA 2: CAGGTTTTCTTTTGTATTCAGTATTCAGTTGATTGATCAATAAAATTAAAAAAAAAAAAAATAGC

How the values were obtained:
[1] = molecular target: T1, RPL (Col-0)-His; experiment: EMSA
[2] = molecular target: T1, RPL (Col-0)-His; experiment: EMSA; remark: listed apart in the source

Binder | binding result [1] | binding result [2]
B1 | binds | –
B2 | binds | –
B3 | – | binds
B4 | – | binds
